From patent US7070973B2, “Butyrylcholinesterase variants and methods of use” (priority 2000, dated 2006)

B1: A328W (protein)
chain: MDSKVTIICIRFLFWFLLLCMLIGKSHTEDDIIIATKNGKVRGMNLTVFGGTVTAFLGIPYAQPPLGRLRFKKPQSLTKWSDIWNATKYANSCCQNIDQSFPGFHGSEMWNPNTDLSEDCLYLNVWIPAPKPKNATVLIWIYGGGFQTGTSSLHVYDGKFLARVERVIVVSMNYRVGALGFLALPGNPEAPGNMGLFDQQLALQWVQKNIAAFGGNPKSVTLFGESAGAASVSLHLLSPGSHSLFTRAILQSGSFNAPWAVTSLYEARNRTLNLAKLTGCSRENETEIIKCLRNKDPQEILLNEAFVVPYGTPLSVNFGPTVDGDFLTDMPDILLELGQFKKTQILVGVNKDEGTWFLVYGAPGFSKDNNSIITRKEFQEGLKIFFPGVSEFGKESILFHYTDWVDDQRPENYREALGDVVGDYNFICPALEFTKKFSEWGNNAFFYYFEHRSSKLPWPEWMGVMHGYEIEFVFGLPLERRDNYTKAEEILSRSIVKRWANFAKYGNPNETQNNSTSWPVFKSTEQKYLTLNTESTRIMTKLRAQQCRFWTSFFPKVLEMTGNIDEAEWEWKAGFHRWNNYMMDWKNQFNDYTSKKESCVGL
modifications: Human Butyrylcholinesterase variant
B2: Q119Y (protein, UniProt P06276 29-602, looked up, variant Q119Y)
Cholinesterase: EDDIIIATKNGKVRGMNLTVFGGTVTAFLGIPYAQPPLGRLRFKKPQSLTKWSDIWNATKYANSCCQNIDQSFPGFHGSEMWNPNTDLSEDCLYLNVWIPAPKPKNATVLIWIYGGGFYTGTSSLHVYDGKFLARVERVIVVSMNYRVGALGFLALPGNPEAPGNMGLFDQQLALQWVQKNIAAFGGNPKSVTLFGESAGAASVSLHLLSPGSHSLFTRAILQSGSFNAPWAVTSLYEARNRTLNLAKLTGCSRENETEIIKCLRNKDPQEILLNEAFVVPYGTPLSVNFGPTVDGDFLTDMPDILLELGQFKKTQILVGVNKDEGTAFLVYGAPGFSKDNNSIITRKEFQEGLKIFFPGVSEFGKESILFHYTDWVDDQRPENYREALGDVVGDYNFICPALEFTKKFSEWGNNAFFYYFEHRSSKLPWPEWMGVMHGYEIEFVFGLPLERRDNYTKAEEILSRSIVKRWANFAKYGNPNETQNNSTSWPVFKSTEQKYLTLNTESTRIMTKLRAQQCRFWTSFFPKVLEMTGNIDEAEWEWKAGFHRWNNYMMDWKNQFNDYTSKKESCVGL
B3: A328F (protein, UniProt P06276 29-602, looked up, variant A328F)
Cholinesterase: EDDIIIATKNGKVRGMNLTVFGGTVTAFLGIPYAQPPLGRLRFKKPQSLTKWSDIWNATKYANSCCQNIDQSFPGFHGSEMWNPNTDLSEDCLYLNVWIPAPKPKNATVLIWIYGGGFQTGTSSLHVYDGKFLARVERVIVVSMNYRVGALGFLALPGNPEAPGNMGLFDQQLALQWVQKNIAAFGGNPKSVTLFGESAGAASVSLHLLSPGSHSLFTRAILQSGSFNAPWAVTSLYEARNRTLNLAKLTGCSRENETEIIKCLRNKDPQEILLNEAFVVPYGTPLSVNFGPTVDGDFLTDMPDILLELGQFKKTQILVGVNKDEGTFFLVYGAPGFSKDNNSIITRKEFQEGLKIFFPGVSEFGKESILFHYTDWVDDQRPENYREALGDVVGDYNFICPALEFTKKFSEWGNNAFFYYFEHRSSKLPWPEWMGVMHGYEIEFVFGLPLERRDNYTKAEEILSRSIVKRWANFAKYGNPNETQNNSTSWPVFKSTEQKYLTLNTESTRIMTKLRAQQCRFWTSFFPKVLEMTGNIDEAEWEWKAGFHRWNNYMMDWKNQFNDYTSKKESCVGL
B4: G116W (protein, UniProt P06276 29-602, looked up, variant G116W)
Cholinesterase: EDDIIIATKNGKVRGMNLTVFGGTVTAFLGIPYAQPPLGRLRFKKPQSLTKWSDIWNATKYANSCCQNIDQSFPGFHGSEMWNPNTDLSEDCLYLNVWIPAPKPKNATVLIWIYGWGFQTGTSSLHVYDGKFLARVERVIVVSMNYRVGALGFLALPGNPEAPGNMGLFDQQLALQWVQKNIAAFGGNPKSVTLFGESAGAASVSLHLLSPGSHSLFTRAILQSGSFNAPWAVTSLYEARNRTLNLAKLTGCSRENETEIIKCLRNKDPQEILLNEAFVVPYGTPLSVNFGPTVDGDFLTDMPDILLELGQFKKTQILVGVNKDEGTAFLVYGAPGFSKDNNSIITRKEFQEGLKIFFPGVSEFGKESILFHYTDWVDDQRPENYREALGDVVGDYNFICPALEFTKKFSEWGNNAFFYYFEHRSSKLPWPEWMGVMHGYEIEFVFGLPLERRDNYTKAEEILSRSIVKRWANFAKYGNPNETQNNSTSWPVFKSTEQKYLTLNTESTRIMTKLRAQQCRFWTSFFPKVLEMTGNIDEAEWEWKAGFHRWNNYMMDWKNQFNDYTSKKESCVGL
B5: V288F (protein, UniProt P06276 29-602, looked up, variant V288F)
Cholinesterase: EDDIIIATKNGKVRGMNLTVFGGTVTAFLGIPYAQPPLGRLRFKKPQSLTKWSDIWNATKYANSCCQNIDQSFPGFHGSEMWNPNTDLSEDCLYLNVWIPAPKPKNATVLIWIYGGGFQTGTSSLHVYDGKFLARVERVIVVSMNYRVGALGFLALPGNPEAPGNMGLFDQQLALQWVQKNIAAFGGNPKSVTLFGESAGAASVSLHLLSPGSHSLFTRAILQSGSFNAPWAVTSLYEARNRTLNLAKLTGCSRENETEIIKCLRNKDPQEILLNEAFVVPYGTPLSFNFGPTVDGDFLTDMPDILLELGQFKKTQILVGVNKDEGTAFLVYGAPGFSKDNNSIITRKEFQEGLKIFFPGVSEFGKESILFHYTDWVDDQRPENYREALGDVVGDYNFICPALEFTKKFSEWGNNAFFYYFEHRSSKLPWPEWMGVMHGYEIEFVFGLPLERRDNYTKAEEILSRSIVKRWANFAKYGNPNETQNNSTSWPVFKSTEQKYLTLNTESTRIMTKLRAQQCRFWTSFFPKVLEMTGNIDEAEWEWKAGFHRWNNYMMDWKNQFNDYTSKKESCVGL
B6: Q119Y/V288F/A328Y (protein, UniProt P06276 29-602, looked up, variant Q119Y V288F A328Y)
Cholinesterase: EDDIIIATKNGKVRGMNLTVFGGTVTAFLGIPYAQPPLGRLRFKKPQSLTKWSDIWNATKYANSCCQNIDQSFPGFHGSEMWNPNTDLSEDCLYLNVWIPAPKPKNATVLIWIYGGGFYTGTSSLHVYDGKFLARVERVIVVSMNYRVGALGFLALPGNPEAPGNMGLFDQQLALQWVQKNIAAFGGNPKSVTLFGESAGAASVSLHLLSPGSHSLFTRAILQSGSFNAPWAVTSLYEARNRTLNLAKLTGCSRENETEIIKCLRNKDPQEILLNEAFVVPYGTPLSFNFGPTVDGDFLTDMPDILLELGQFKKTQILVGVNKDEGTYFLVYGAPGFSKDNNSIITRKEFQEGLKIFFPGVSEFGKESILFHYTDWVDDQRPENYREALGDVVGDYNFICPALEFTKKFSEWGNNAFFYYFEHRSSKLPWPEWMGVMHGYEIEFVFGLPLERRDNYTKAEEILSRSIVKRWANFAKYGNPNETQNNSTSWPVFKSTEQKYLTLNTESTRIMTKLRAQQCRFWTSFFPKVLEMTGNIDEAEWEWKAGFHRWNNYMMDWKNQFNDYTSKKESCVGL
B7: Y332A (protein, UniProt P06276 29-602, looked up, variant Y332A)
Cholinesterase: EDDIIIATKNGKVRGMNLTVFGGTVTAFLGIPYAQPPLGRLRFKKPQSLTKWSDIWNATKYANSCCQNIDQSFPGFHGSEMWNPNTDLSEDCLYLNVWIPAPKPKNATVLIWIYGGGFQTGTSSLHVYDGKFLARVERVIVVSMNYRVGALGFLALPGNPEAPGNMGLFDQQLALQWVQKNIAAFGGNPKSVTLFGESAGAASVSLHLLSPGSHSLFTRAILQSGSFNAPWAVTSLYEARNRTLNLAKLTGCSRENETEIIKCLRNKDPQEILLNEAFVVPYGTPLSVNFGPTVDGDFLTDMPDILLELGQFKKTQILVGVNKDEGTAFLVAGAPGFSKDNNSIITRKEFQEGLKIFFPGVSEFGKESILFHYTDWVDDQRPENYREALGDVVGDYNFICPALEFTKKFSEWGNNAFFYYFEHRSSKLPWPEWMGVMHGYEIEFVFGLPLERRDNYTKAEEILSRSIVKRWANFAKYGNPNETQNNSTSWPVFKSTEQKYLTLNTESTRIMTKLRAQQCRFWTSFFPKVLEMTGNIDEAEWEWKAGFHRWNNYMMDWKNQFNDYTSKKESCVGL
B8: A328I (protein, UniProt P06276 29-602, looked up, variant A328I)
Cholinesterase: EDDIIIATKNGKVRGMNLTVFGGTVTAFLGIPYAQPPLGRLRFKKPQSLTKWSDIWNATKYANSCCQNIDQSFPGFHGSEMWNPNTDLSEDCLYLNVWIPAPKPKNATVLIWIYGGGFQTGTSSLHVYDGKFLARVERVIVVSMNYRVGALGFLALPGNPEAPGNMGLFDQQLALQWVQKNIAAFGGNPKSVTLFGESAGAASVSLHLLSPGSHSLFTRAILQSGSFNAPWAVTSLYEARNRTLNLAKLTGCSRENETEIIKCLRNKDPQEILLNEAFVVPYGTPLSVNFGPTVDGDFLTDMPDILLELGQFKKTQILVGVNKDEGTIFLVYGAPGFSKDNNSIITRKEFQEGLKIFFPGVSEFGKESILFHYTDWVDDQRPENYREALGDVVGDYNFICPALEFTKKFSEWGNNAFFYYFEHRSSKLPWPEWMGVMHGYEIEFVFGLPLERRDNYTKAEEILSRSIVKRWANFAKYGNPNETQNNSTSWPVFKSTEQKYLTLNTESTRIMTKLRAQQCRFWTSFFPKVLEMTGNIDEAEWEWKAGFHRWNNYMMDWKNQFNDYTSKKESCVGL
B9: T120F (protein, UniProt P06276 29-602, looked up, variant T120F)
Cholinesterase: EDDIIIATKNGKVRGMNLTVFGGTVTAFLGIPYAQPPLGRLRFKKPQSLTKWSDIWNATKYANSCCQNIDQSFPGFHGSEMWNPNTDLSEDCLYLNVWIPAPKPKNATVLIWIYGGGFQFGTSSLHVYDGKFLARVERVIVVSMNYRVGALGFLALPGNPEAPGNMGLFDQQLALQWVQKNIAAFGGNPKSVTLFGESAGAASVSLHLLSPGSHSLFTRAILQSGSFNAPWAVTSLYEARNRTLNLAKLTGCSRENETEIIKCLRNKDPQEILLNEAFVVPYGTPLSVNFGPTVDGDFLTDMPDILLELGQFKKTQILVGVNKDEGTAFLVYGAPGFSKDNNSIITRKEFQEGLKIFFPGVSEFGKESILFHYTDWVDDQRPENYREALGDVVGDYNFICPALEFTKKFSEWGNNAFFYYFEHRSSKLPWPEWMGVMHGYEIEFVFGLPLERRDNYTKAEEILSRSIVKRWANFAKYGNPNETQNNSTSWPVFKSTEQKYLTLNTESTRIMTKLRAQQCRFWTSFFPKVLEMTGNIDEAEWEWKAGFHRWNNYMMDWKNQFNDYTSKKESCVGL

Assay: Spectrophotometric (240 nm) cocaine binding and hydrolysis assay with purified butyrylcholinesterase variants
Assay type: biochemical
Conditions: for Km / kcat (hydrolysis rate): (−)-cocaine; for Km: 0.1M potassium phosphate pH 7.0 at 30° C.; for kcat (hydrolysis rate): active sites titrated with chlorpyrifos oxon; for Cocaine Binding or Cocaine Hydrolysis (result in words): Table 4
Experimental: […]. Pharmacol. 41:1249–1254 (1991). Km values were determined in 0.1M potassium phosphate pH 7.0 at 30° C. for (−)-cocaine. Vmax values and Km values were calculated using Sigma Plot for Macintosh (Jandel Scientific, San Rafael, Calif.).
Once Vmax values and Km values were calculated, the number of active sites in each butyrylcholinesterase preparation was determined. The titration of active sites was performed with chlorpyrifos oxon (MET-674B, Chem Service, West Chester, Pa.), an inhibitor of butyrylcholinesterase. One molecule of chlorpyrifos oxon binds and inhibits one molecule of butyrylcholinesterase, which allows for calculation of the number of active sites. Based on the number of active sites, the kcat value for each variant was calculated (Table 3). […].

Molecule | Km | kcat (hydrolysis rate) | Cocaine Binding or Cocaine Hydrolysis (result in words)
B1 | 10 µM | 0.62 s⁻¹ | –
B2 | 56 µM | 0.0333 s⁻¹ | not a cocaine hydrolase
B3 | 24 µM | 0.0967 s⁻¹ | Not a cocaine hydrolase
B4 | – | – | no activity
B5 | 17 µM | 0.0167 s⁻¹ | Not a cocaine hydrolase
B6 | 33 µM | 0.0383 s⁻¹ | Not a cocaine hydrolase
B7 | 240 µM | – | –
B8 | 11 µM | 0.0083 s⁻¹ | Not a cocaine hydrolase
B9 | 97 µM | – | not a cocaine hydrolase
